Tests used:
[1] = molecular target: human IL-13 (Homo sapiens) (UniProt P35225); experiment: SPR
[2] = molecular target: anti-IL-13 IgG4 variant VH Y98L (human (humanized antibody)); experiment: SPR

kon [1] [M⁻¹ s⁻¹]	Kd [1] [pM]	koff [1] [s⁻¹]	Kd [2] [pM]	koff [2] [s⁻¹]	kon [2] [M⁻¹ s⁻¹]	Substance
2.16e+06	–	–	–	–	–	anti-IL-13 IgG4 (lebrikizumab), parent (antibody)
2.08e+06	< 10	< 0.0001	–	–	–	anti-IL-13 IgG4 variant VH Y97L (antibody)
–	3320	0.00331	–	–	–	anti-IL-13 IgG4 variant VH Y100Q (antibody)
–	–	–	75.3	8.76e-05	1.16e+06	human IL-13 (from UniProt P35225 25-146) (ligand)

From publication PMC6927759
